Experimental findings from article PMC9038728, “Development of broadly neutralizing antibodies targeting the cytomegalovirus subdominant antigen gH” (Communications Biology, 2022) are described below.

The target in this assay is T1, HCMV gH/gL complex expressed in U373 astrocytoma cells (Human cytomegalovirus (HHV-5), strain …, UniProt P12824;P16832).
T1 construct: Human cytomegalovirus envelope glycoprotein H (gH); Human cytomegalovirus envelope glycoprotein L (gL); The immunisation plasmid and the peptide array used TB40/E gH, but no strain is named for the U373 cells; also called gH/gL-dimer; U373-gH/gL
In words: flow cytometry on cells; Competition of the anti-gH mAbs with MSL-109. The set-up for MSL-109 is not told. The competition assay in the methods uses fixed, permeabilised U373-gH/gL cells, AF647-labelled antibody plus unlabelled antibody, 4 °C, 1 h. The note with it: one partner purified.

B1: MSL-109 (antibody, V domains shown)
VH: EEQVLESGGGLVKPGGSLRLSCAASGFTFSPYSVFWVRQAPGKGLEWVSSINSDSTYKYYADSVKGRFTISRDNAENSIFLQMNSLRAEDTAVYYCARDRSYYAFSSGSLSDYYYGLDVWGQGTLVTVSS
VL: DIVMTQSPLSLSVTPGEPASISCRSSQSLLHTNGYNYLDWYVQKPGQSPQLLIYLASNRASGVPDRFSGSGSGTDFTLKISRVETEDVGVYYCMQALQIPRTFGQGTKVEIK
notes: Human IgG1 constant region from the pFuse vector (InvivoGen); Human kappa constant region from the pFuse vector (InvivoGen); Human IgG1 kappa; source: HEK-293, heavy and light chain co-transfected, purified from the cell supernatant
In the case of B1, the binding result is on record as “binds”.
